For test [1], the target named is T1, claudin-18.2 antigen (manufacturer: GenScript, batch number: R50092011) (UniProt P56856-2 1-261, limits assumed).
T1 construct: Bought antigen
T1 sequence (looked up): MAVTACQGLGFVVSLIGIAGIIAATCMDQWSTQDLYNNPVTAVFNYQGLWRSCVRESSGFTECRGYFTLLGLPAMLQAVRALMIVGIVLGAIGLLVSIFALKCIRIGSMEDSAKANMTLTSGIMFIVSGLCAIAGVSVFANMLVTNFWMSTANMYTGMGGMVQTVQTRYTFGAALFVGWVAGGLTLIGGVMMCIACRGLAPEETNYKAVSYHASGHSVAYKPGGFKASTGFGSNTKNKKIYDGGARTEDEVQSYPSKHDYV
Description: ELISA, plate coated with claudin-18.2 antigen. The gist of the method: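 Antigen-coated, milk-blocked plates incubated with diluted antibodies 60 min at room temperature, then anti-human IgG-Fc-HRP 50 min. TMB development with OD450 read-out; EC50 derived from binding curves.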

For test [2], the target named is T1, claudin-18.2 antigen (manufacturer: …). Description: Gator label-free kinetics, antibody loaded, antigen 2000-500 nM. The method, then: The GATOR instrument and associated software were opened and the Kinetics experimental mode was selected. After data collection, Kinetics fitting was performed to calculate the affinity kinetic parameters. The correlation coefficient R² of all antibodies in the Global fitting mode was greater than 0.95, which met the system suitability requirements and the results were reliable.

Substitutions are numbered along the chain they refer to.

B1: 1B6-huVH3-HC (IgG1) huVL3 (antibody)
heavy: not shown
light: DIQMTQSPSSLSASVGDRVTITCRSSQSLFNSGNQKNYLTWYQQKPGKAPKLLIYWASTRESGVPSRFSGSGSGTDFTLTISSLQPEDFATYYCQNDYSYPLTFGGGTKLEIKRTVAAPSVFIFPPSDEQLKSGTASVVCLLNNFYPREAKVQWKVDNALQSGNSQESVTEQDSKDSTYSLSSTLTLSKADYEKHKVYACEVTHQGLSSPVTKSFNRGEC
notes: humanized 1B6, human IgG1, kappa
One may read the EC50 as the concentration giving half of the maximal effect. High values mean a need for much substance, low ones an effect from little substance. What is called Kd is a measure of binding affinity in units of concentration. A low value points to tighter binding. As usually defined, the koff is the first-order rate constant of dissociation. Low values mean a long-lived complex, high ones a short-lived complex. What is called kon is the rate constant with which the complex forms. Consider B1, for which the EC50 in test [1] came to 0.0725 µg/mL. Moreover, in test [2], the Kd was found to be 9.64 nM, the dissociation rate constant (koff) is 0.000116 s⁻¹ and the kon was determined as 12100 M⁻¹ s⁻¹.

B2: 1B6-huVH1huVL1 (antibody, human IgG4 S228P, kappa)
heavy: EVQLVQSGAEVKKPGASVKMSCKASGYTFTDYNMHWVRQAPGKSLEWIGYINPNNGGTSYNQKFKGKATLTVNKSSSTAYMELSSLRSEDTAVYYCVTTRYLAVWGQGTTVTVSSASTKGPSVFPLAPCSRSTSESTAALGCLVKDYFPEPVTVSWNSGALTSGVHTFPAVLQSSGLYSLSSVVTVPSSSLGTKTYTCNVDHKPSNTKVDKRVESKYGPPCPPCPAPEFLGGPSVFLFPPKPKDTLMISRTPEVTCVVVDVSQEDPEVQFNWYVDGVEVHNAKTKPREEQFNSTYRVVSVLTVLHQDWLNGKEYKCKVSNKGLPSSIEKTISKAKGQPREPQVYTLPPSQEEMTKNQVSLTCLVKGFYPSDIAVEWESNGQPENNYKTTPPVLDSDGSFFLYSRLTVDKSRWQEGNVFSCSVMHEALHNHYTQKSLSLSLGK
light: B1 light with Q3V, A13V, I21M, R24K, S66D, L84V, Y93F
notes: humanized 1B6, human IgG4, kappa
Consider B2, for which the EC50 in test [1] was 0.0839 µg/mL. Further, in test [2], the Kd is 98.8 nM, the koff was 0.00222 s⁻¹ and the kon worked out at 22400 M⁻¹ s⁻¹.

B3: 1B6-huVH5-HC (IgG1) huVL2 (antibody)
heavy: not shown
light: B1 light with I21M, R24K
notes: as for B1
On to B3, for which, in test [1], it took 0.0298 µg/mL to reach a half-maximal effect (EC50). In test [2], this molecule returned a Kd of 59.7 nM, a koff of 0.00129 s⁻¹ and a kon of 21600 M⁻¹ s⁻¹.

B4: 1B6-huVH4-HC (IgG1) huVL2 (antibody)
heavy: not shown
light: B1 light with I21M, R24K
notes: as for B1
Molecule B4 came in with an EC50 in test [1] of 0.0431 µg/mL. In test [2], the Kd turned out to be 20.5 nM, the koff came to 0.000207 s⁻¹ and the kon stood at 10100 M⁻¹ s⁻¹.

B5: 1B6-huVH4-HC (IgG1) huVL3 (antibody)
heavy: not shown
light: B1 light
notes: as for B1
The molecule B5 came in with an EC50 in test [1] of 0.0519 µg/mL. In test [2], the Kd was 43.9 nM, the koff is 0.000799 s⁻¹ and the kon is 18200 M⁻¹ s⁻¹.

B6: 1B6-huVH5-HC (IgG1) huVL3 (antibody)
heavy: not shown
light: B1 light
notes: as for B1
As to B6, the EC50 in test [1] amounted to 0.035 µg/mL. In test [2], this molecule came in with a Kd of 76.8 nM, a koff of 0.00175 s⁻¹ and a kon of 22700 M⁻¹ s⁻¹.

These data come from patent US20250332197A1 (SUNSHINE LAKE PHARMA, published 2025).
